Two molecules from patent publication US20230250154A1 (CYTONICS, published 2023) can be followed below.

Targets include MMP3 (human, UniProt P08254 100-477, limits assumed); MMP9 (human, UniProt P14780 107-707, limits assumed); MMP8 (human, UniProt P22894 101-467, limits assumed); MMP13 (human, UniProt P45452 104-471, limits assumed); Elastase.
Common to all, as to experiment: cell-based or functional assay
In another assay the target is T1, ADAMTS5 (human, UniProt Q9UNA0 262-622, limits assumed).
T1 sequence (looked up): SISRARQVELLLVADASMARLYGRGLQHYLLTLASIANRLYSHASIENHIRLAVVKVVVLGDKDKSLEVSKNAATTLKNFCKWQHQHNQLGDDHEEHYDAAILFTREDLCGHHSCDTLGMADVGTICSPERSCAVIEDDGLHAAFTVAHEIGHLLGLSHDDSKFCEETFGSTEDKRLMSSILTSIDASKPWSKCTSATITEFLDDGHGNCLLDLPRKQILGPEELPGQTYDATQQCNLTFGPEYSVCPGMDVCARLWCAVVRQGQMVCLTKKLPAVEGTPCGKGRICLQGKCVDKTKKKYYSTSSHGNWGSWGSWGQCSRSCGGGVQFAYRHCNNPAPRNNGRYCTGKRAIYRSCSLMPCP

For a further assay, the target named is T2, MMP2 (human, UniProt P08253 110-660, limits assumed).
T2 sequence (looked up): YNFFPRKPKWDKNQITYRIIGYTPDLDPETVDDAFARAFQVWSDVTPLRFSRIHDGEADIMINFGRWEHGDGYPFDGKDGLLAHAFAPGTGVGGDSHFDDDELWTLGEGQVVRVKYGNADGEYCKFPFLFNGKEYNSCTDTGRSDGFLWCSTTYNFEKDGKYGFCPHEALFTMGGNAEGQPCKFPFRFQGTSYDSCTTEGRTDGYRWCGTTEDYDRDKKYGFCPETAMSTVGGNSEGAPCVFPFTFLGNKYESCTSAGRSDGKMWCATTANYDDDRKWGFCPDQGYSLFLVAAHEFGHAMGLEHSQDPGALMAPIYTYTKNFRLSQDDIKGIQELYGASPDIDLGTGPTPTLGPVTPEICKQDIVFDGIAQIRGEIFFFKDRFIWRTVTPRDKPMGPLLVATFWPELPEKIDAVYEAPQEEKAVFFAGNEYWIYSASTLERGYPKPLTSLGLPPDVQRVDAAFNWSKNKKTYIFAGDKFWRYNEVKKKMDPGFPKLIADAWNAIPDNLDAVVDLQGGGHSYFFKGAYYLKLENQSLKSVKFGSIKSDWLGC

The target in the next assay is T3, Cathepsin G (UniProt P08311 21-244).
T3 sequence (looked up): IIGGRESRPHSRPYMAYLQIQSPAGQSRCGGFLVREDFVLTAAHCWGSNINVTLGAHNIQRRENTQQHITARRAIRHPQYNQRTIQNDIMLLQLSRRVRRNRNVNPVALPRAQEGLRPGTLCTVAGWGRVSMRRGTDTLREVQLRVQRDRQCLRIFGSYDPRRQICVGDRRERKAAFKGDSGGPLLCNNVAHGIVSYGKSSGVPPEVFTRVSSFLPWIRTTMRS

In a further assay the target is T4, MMP7 (UniProt P09237 95-267, limits assumed).
T4 sequence (looked up): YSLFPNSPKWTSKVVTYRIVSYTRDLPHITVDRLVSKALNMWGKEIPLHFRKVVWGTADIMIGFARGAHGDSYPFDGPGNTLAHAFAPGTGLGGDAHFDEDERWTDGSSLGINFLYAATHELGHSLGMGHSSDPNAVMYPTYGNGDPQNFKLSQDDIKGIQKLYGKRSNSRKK

In a further assay the target is T5, MMP1 (human, UniProt P03956 100-469, limits assumed).
T5 sequence (looked up): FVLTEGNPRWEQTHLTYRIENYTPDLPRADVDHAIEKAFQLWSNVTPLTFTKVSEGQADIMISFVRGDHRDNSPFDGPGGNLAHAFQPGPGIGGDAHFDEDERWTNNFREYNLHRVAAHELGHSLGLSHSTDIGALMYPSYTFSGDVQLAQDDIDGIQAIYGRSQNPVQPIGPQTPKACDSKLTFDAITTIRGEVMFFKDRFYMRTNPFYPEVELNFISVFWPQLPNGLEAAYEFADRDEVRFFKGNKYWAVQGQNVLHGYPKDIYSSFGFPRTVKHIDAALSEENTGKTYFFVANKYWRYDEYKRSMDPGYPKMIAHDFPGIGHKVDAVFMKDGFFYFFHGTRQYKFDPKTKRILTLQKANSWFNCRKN

Sequence of MMP3 (P08254 100-477 limits assumed): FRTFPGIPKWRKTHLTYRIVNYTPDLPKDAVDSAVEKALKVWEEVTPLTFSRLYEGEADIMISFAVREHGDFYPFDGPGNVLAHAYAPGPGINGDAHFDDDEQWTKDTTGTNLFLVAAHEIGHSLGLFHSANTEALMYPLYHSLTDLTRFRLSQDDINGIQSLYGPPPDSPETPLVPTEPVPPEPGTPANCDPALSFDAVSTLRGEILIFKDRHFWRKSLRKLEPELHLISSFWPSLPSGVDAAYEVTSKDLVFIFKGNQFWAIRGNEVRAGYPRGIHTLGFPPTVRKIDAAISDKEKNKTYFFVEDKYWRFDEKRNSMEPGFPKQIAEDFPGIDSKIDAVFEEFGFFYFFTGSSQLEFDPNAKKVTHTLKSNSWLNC
Sequence of MMP9 (P14780 107-707 limits assumed): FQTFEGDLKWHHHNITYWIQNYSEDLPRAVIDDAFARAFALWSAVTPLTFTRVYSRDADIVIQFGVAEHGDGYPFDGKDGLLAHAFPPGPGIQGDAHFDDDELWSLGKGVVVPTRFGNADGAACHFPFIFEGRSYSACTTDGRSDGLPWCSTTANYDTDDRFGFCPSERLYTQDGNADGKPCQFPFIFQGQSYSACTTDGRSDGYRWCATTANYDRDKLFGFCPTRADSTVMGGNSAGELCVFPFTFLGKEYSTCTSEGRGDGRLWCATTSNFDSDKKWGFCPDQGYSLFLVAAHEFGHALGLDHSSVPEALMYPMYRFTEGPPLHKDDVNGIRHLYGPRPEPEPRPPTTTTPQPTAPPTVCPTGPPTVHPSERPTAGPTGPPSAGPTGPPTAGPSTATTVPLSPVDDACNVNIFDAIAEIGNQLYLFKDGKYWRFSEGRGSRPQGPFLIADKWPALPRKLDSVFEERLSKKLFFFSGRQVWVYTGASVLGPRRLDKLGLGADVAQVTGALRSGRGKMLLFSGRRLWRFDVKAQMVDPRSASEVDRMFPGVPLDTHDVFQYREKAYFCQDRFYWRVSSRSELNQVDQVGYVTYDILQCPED
Sequence of MMP8 (P22894 101-467 limits assumed): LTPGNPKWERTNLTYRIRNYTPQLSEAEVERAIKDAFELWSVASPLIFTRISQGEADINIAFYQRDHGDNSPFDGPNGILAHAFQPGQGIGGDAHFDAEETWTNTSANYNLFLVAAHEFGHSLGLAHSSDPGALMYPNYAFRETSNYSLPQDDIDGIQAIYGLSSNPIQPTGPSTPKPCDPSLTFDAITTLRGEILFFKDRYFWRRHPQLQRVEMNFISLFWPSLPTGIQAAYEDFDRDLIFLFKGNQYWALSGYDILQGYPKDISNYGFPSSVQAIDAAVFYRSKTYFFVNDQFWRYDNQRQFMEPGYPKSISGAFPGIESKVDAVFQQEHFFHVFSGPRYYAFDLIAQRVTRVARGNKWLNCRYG

B1: Variant A2M, bait region SEQ ID NO 27 (other)
chain: SVSGKPQYMVLVPSLLHTETTEKGCVLLSYLNETVTVSASLESVRGNRSLFTDLEAENDVLHCVAFAVPKSSSNEEVMFLTVQVKGPTQEFKKRTTVMVKNEDSLVFVQTDKSIYKPGQTVKFRVVSMDENFHPLNELIPLVYIQDPKGNRIAQWQSFQLEGGLKQFSFPLSSEPFQGSYKVVVQKKSGGRTEHPFTVEEFVLPKFEVQVTVPKIITILEEEMNVSVCGLYTYGKPVPGHVTVSICRKYSDASDCHGEDSQAFCEKFSGQLNSHGCFYQQVKTKVFQLKRKEYEMKLHTEAQIQEEGTVVELTGRQSSEITRTITKLSFVKVDSHFRQGIPFFGQVRLVDGKGVPIPNKVIFIRGNEANYYSNATTDEHGLVQFSINTTNVMGTSLTVRVNYKDRSPCYGYQWVSEEHEEAHHTAYLVFSPSKSFVHLEPMSHELPCGHTQTVQAHYILNGGTLLGLKKLSFYYLIMAKGGIVRTGTHGLLVKQEDMKGHFSISIPVKSDIAPVARLLIYAVLPTGDVIGDSAKYDVENCLANKVDLSFSPSQSLPASHAHLRVTAAPQSVCALRAVDQSVLLMKPDAELSASSVYNLLPEKDLTGFPGPLNDQDDEDCINRHNVYINGITYTPVSSTNEKDMYSFLEDMGLKAFTNSKIRKPKMCPQLEQYEMHGPEGEGEGEGIPENFYGVSEDLYTASELEGRGSVEEPHTKLRKYFPETWIWDLVVVNSAGVAEVGVTVPDTITEWKAGAFCLSEDAGLGISSTASLRAFQPFFVELTMPYSVIRGEAFTLKATVLNYLPKCIRVSVQLEASPAFLAVPVEKEQAPHCICANGRQTVSWAVTPKSLGNVNFTVSAEALESQELCGTEVPSVPEHGRKDTVIKPLLVEPEGLEKETTFNSLLCPSGGEVSEELSLKLPPNVVEESARASVSVLGDILGSAMQNTQNLLQMPYGCGEQNMVLFAPNIYVLDYLNETQQLTPEIKSKAIGYLNTGYQRQLNYKHYDGSYSTFGERYGRNQGNTWLTAFVLKTFAQARAYIFIDEAHITQALIWLSQRQKDNGCFRSSGSLLNNAIKGGVEDEVTLSAYITIALLEIPLTVTHPVVRNALFCLESAWKTAQEGDHGSHVYTKALLAYAFALAGNQDKRKEVLKSLNEEAVKKDNSVHWERPQKPKAPVGHFYEPQAPSAEVEMTSYVLLAYLTAQPAPTSEDLTSATNIVKWITKQQNAQGGFSSTQDTVVALHALSKYGAATFTRTGKAAQVTIQSSGTFSSKFQVDNNNRLLLQQVSLPELPGEYSMKVTGEGCVYLQTSLKYNILPEKEEFPFALGVQTLPQTCDEPKAHTSFQISLSVSYTGSRSASNMAIVDVKMVSGFIPLKPTVKMLERSNHVSRTEVSSNHVLIYLDKVSNQTLSLFFTVLQDVPVRDLKPAIVKVYDYYETDEFAIAEYNAPCSKDLGNADYKDDDDKGASHHHHHH
On to B1, for which the “Protease Inhibition (% of WT)” value is 114 % of WT with ADAMTS5; 16 % of WT with MMP2; 161 % of WT with Cathepsin G; 33 % of WT in the assay with MMP3; 13 % of WT with MMP9; 138 % of WT with MMP7. The “Protease Inhibition (% of WT)” value with MMP1 was 109 % of WT; with MMP8, 43 % of WT; with MMP13, 54 % of WT; with Elastase, 79 % of WT.

B2: Variant A2M, bait region SEQ ID NO 19 (other)
chain: SVSGKPQYMVLVPSLLHTETTEKGCVLLSYLNETVTVSASLESVRGNRSLFTDLEAENDVLHCVAFAVPKSSSNEEVMFLTVQVKGPTQEFKKRTTVMVKNEDSLVFVQTDKSIYKPGQTVKFRVVSMDENFHPLNELIPLVYIQDPKGNRIAQWQSFQLEGGLKQFSFPLSSEPFQGSYKVVVQKKSGGRTEHPFTVEEFVLPKFEVQVTVPKIITILEEEMNVSVCGLYTYGKPVPGHVTVSICRKYSDASDCHGEDSQAFCEKFSGQLNSHGCFYQQVKTKVFQLKRKEYEMKLHTEAQIQEEGTVVELTGRQSSEITRTITKLSFVKVDSHFRQGIPFFGQVRLVDGKGVPIPNKVIFIRGNEANYYSNATTDEHGLVQFSINTTNVMGTSLTVRVNYKDRSPCYGYQWVSEEHEEAHHTAYLVFSPSKSFVHLEPMSHELPCGHTQTVQAHYILNGGTLLGLKKLSFYYLIMAKGGIVRTGTHGLLVKQEDMKGHFSISIPVKSDIAPVARLLIYAVLPTGDVIGDSAKYDVENCLANKVDLSFSPSQSLPASHAHLRVTAAPQSVCALRAVDQSVLLMKPDAELSASSVYNLLPEKDLTGFPGPLNDQDDEDCINRHNVYINGITYTPVSSTNEKDMYSFLEDMGLKAFTNSKIRKPKMCPQLEHGPEGEGEGEFRGVTIPENFYGVSEDLVVQISELEGRGSVEEPHTKLRKYFPETWIWDLVVVNSAGVAEVGVTVPDTITEWKAGAFCLSEDAGLGISSTASLRAFQPFFVELTMPYSVIRGEAFTLKATVLNYLPKCIRVSVQLEASPAFLAVPVEKEQAPHCICANGRQTVSWAVTPKSLGNVNFTVSAEALESQELCGTEVPSVPEHGRKDTVIKPLLVEPEGLEKETTFNSLLCPSGGEVSEELSLKLPPNVVEESARASVSVLGDILGSAMQNTQNLLQMPYGCGEQNMVLFAPNIYVLDYLNETQQLTPEIKSKAIGYLNTGYQRQLNYKHYDGSYSTFGERYGRNQGNTWLTAFVLKTFAQARAYIFIDEAHITQALIWLSQRQKDNGCFRSSGSLLNNAIKGGVEDEVTLSAYITIALLEIPLTVTHPVVRNALFCLESAWKTAQEGDHGSHVYTKALLAYAFALAGNQDKRKEVLKSLNEEAVKKDNSVHWERPQKPKAPVGHFYEPQAPSAEVEMTSYVLLAYLTAQPAPTSEDLTSATNIVKWITKQQNAQGGFSSTQDTVVALHALSKYGAATFTRTGKAAQVTIQSSGTFSSKFQVDNNNRLLLQQVSLPELPGEYSMKVTGEGCVYLQTSLKYNILPEKEEFPFALGVQTLPQTCDEPKAHTSFQISLSVSYTGSRSASNMAIVDVKMVSGFIPLKPTVKMLERSNHVSRTEVSSNHVLIYLDKVSNQTLSLFFTVLQDVPVRDLKPAIVKVYDYYETDEFAIAEYNAPCSKDLGNADYKDDDDKGASHHHHHH
In the case of B2, the “Protease Inhibition (% of WT)” value is 530 % of WT in the assay with ADAMTS5; 36 % of WT in the assay with MMP2; 90 % of WT in the assay with Cathepsin G; 140 % of WT with MMP3; 39 % of WT with MMP9; 137 % of WT with MMP7. For the same molecule, the “Protease Inhibition (% of WT)” value with MMP1 was 100 % of WT; in the assay with MMP8, 51 % of WT; with MMP13, 89 % of WT; with Elastase, 115 % of WT.
